Patent publication US20140087995A1 (published 2014)
Numbered stars: 1 amine (or outer) side, 2 acyl side, 3 side chain; on linkers, the order of the positions; unused ones are H or OH. Bridge positions count the residues as written; N and C are the ends. * marks the point of attachment. C20 diacid = O=C(O)CCCCCCCCCCCCCCCCCCC(=O)*; γGlu = O=C(O)[C@H](CCC(=O)[*:2])N[*:1]

Target: T1, human amylin receptor (human, UniProt P30988 25-474; O60896 24-148, limits assumed)
T1 construct: whole, on cells; Calcitonin receptor plus RAMP-3 gives the amylin 3(a) receptor; membranes of Amylin 3(a)/CRE-luc cells were used; also called hAmylin-R; hAmylinR
T1 sequence (looked up) 1: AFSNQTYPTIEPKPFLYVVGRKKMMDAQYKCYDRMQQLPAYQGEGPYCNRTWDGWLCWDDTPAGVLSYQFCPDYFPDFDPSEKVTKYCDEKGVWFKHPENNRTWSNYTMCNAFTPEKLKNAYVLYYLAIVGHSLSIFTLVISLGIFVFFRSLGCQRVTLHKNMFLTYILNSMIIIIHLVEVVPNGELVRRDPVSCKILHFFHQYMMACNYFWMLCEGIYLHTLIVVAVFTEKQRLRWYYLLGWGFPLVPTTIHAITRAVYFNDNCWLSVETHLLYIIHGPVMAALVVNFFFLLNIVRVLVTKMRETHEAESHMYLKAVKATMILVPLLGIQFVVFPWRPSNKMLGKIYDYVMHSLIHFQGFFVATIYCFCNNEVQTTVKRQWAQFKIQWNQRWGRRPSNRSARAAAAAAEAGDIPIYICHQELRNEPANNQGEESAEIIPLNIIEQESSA
T1 sequence (looked up) 2: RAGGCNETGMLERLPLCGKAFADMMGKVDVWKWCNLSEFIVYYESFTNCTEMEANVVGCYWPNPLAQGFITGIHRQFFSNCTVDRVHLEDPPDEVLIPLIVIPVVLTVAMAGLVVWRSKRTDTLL
Experiment: SPA competition binding, displacement of 125I-rat amylin from membranes with human amylin 3(a) receptor (Assay V)
Summary of the method: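 SPA beads + BHK amylin 3(a)/CRE-luc membranes, 35 ng/μL final; buffer 50 mM Hepes pH 7.4, 1 mM CaCl2, 5 mM MgCl₂, 0.1% OA, 0.02% Tween20. 120 min, 25° C, shaken; scintillation count. IC₅₀ by one-site binding competition fit, taken as receptor affinity.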

Binder | IC50 [pM]
{C20 diacid-γGlu}-GRCNTATCATQRLAAFLRHSSPNFGAIPSSTNVGHNTY-NH2 (disulfide 3-8; SMILES CC[C@H](C)[C@H](NC(=O)[C@H](C)NC(=O)CNC(=O)[C@H](Cc1ccccc1)NC(=O)[C@H](CC(N)=O)NC(=O)[C@@H]1CCCN1C(=O)[C@H](CO)NC(=O)[C@H](CO)NC(=O)[C@H](Cc1c[nH]cn1)NC(=O)[C@H](CCCNC(=N)N)NC(=O)[C@H](CC(C)C)NC(=O)[C@H](Cc1ccccc1)NC(=O)[C@H](C)NC(=O)[C@H](C)NC(=O)[C@H](CC(C)C)NC(=O)[C@H](CCCNC(=N)N)NC(=O)[C@H](CCC(N)=O)NC(=O)[C@@H](NC(=O)[C@H](C)NC(=O)[C@@H]1CSSC[C@H](NC(=O)[C@H](CCCNC(=N)N)NC(=O)CNC(=O)CC[C@H](NC(=O)CCCCCCCCCCCCCCCCCCC(=O)O)C(=O)O)C(=O)N[C@@H](CC(N)=O)C(=O)N[C@@H]([C@@H](C)O)C(=O)N[C@@H](C)C(=O)N[C@@H]([C@@H](C)O)C(=O)N1)[C@@H](C)O)C(=O)N1CCC[C@H]1C(=O)N[C@@H](CO)C(=O)N[C@@H](CO)C(=O)N[C@H](C(=O)N[C@@H](CC(N)=O)C(=O)N[C@H](C(=O)NCC(=O)N[C@@H](Cc1c[nH]cn1)C(=O)N[C@@H](CC(N)=O)C(=O)N[C@H](C(=O)N[C@@H](Cc1ccc(O)cc1)C(N)=O)[C@@H](C)O)C(C)C)[C@@H](C)O, also called -1G, 1R, 14A, 17R, 21P, 27P, 34H) | 426
{C20 diacid-γGlu}-GRCNTATCATQRLAAFLRHSSPNFGAIPSSTNVGPNTY-NH2 (disulfide 3-8, also called -1G, 1R, 14A, 17R, 21P, 27P, 34P) | 114
{C20 diacid-γGlu}-GRCNTATCATQRLANFLRHSSPNFGAIPSSTNVGSHTY-NH2 (disulfide 3-8; SMILES CC[C@H](C)[C@H](NC(=O)[C@H](C)NC(=O)CNC(=O)[C@H](Cc1ccccc1)NC(=O)[C@H](CC(N)=O)NC(=O)[C@@H]1CCCN1C(=O)[C@H](CO)NC(=O)[C@H](CO)NC(=O)[C@H](Cc1c[nH]cn1)NC(=O)[C@H](CCCNC(=N)N)NC(=O)[C@H](CC(C)C)NC(=O)[C@H](Cc1ccccc1)NC(=O)[C@H](CC(N)=O)NC(=O)[C@H](C)NC(=O)[C@H](CC(C)C)NC(=O)[C@H](CCCNC(=N)N)NC(=O)[C@H](CCC(N)=O)NC(=O)[C@@H](NC(=O)[C@H](C)NC(=O)[C@@H]1CSSC[C@H](NC(=O)[C@H](CCCNC(=N)N)NC(=O)CNC(=O)CC[C@H](NC(=O)CCCCCCCCCCCCCCCCCCC(=O)O)C(=O)O)C(=O)N[C@@H](CC(N)=O)C(=O)N[C@@H]([C@@H](C)O)C(=O)N[C@@H](C)C(=O)N[C@@H]([C@@H](C)O)C(=O)N1)[C@@H](C)O)C(=O)N1CCC[C@H]1C(=O)N[C@@H](CO)C(=O)N[C@@H](CO)C(=O)N[C@H](C(=O)N[C@@H](CC(N)=O)C(=O)N[C@H](C(=O)NCC(=O)N[C@@H](CO)C(=O)N[C@@H](Cc1c[nH]cn1)C(=O)N[C@H](C(=O)N[C@@H](Cc1ccc(O)cc1)C(N)=O)[C@@H](C)O)C(C)C)[C@@H](C)O, also called -1G, 1R, 17R, 21P, 27P, 35H) | 344
